Measurements: patent US20230049152A1 (Genentech, published 2023)

B1: hu.Ab2.H1L1 (antibody, human IgG1, kappa, V domains shown)
VH: EQQLVESGGGVVQPGRSLRLSCAASGFSFSYGYDMCWVRQAPGKGLEWIACISAGSSDNTWYASWAKGRFTISKDTSKTTVYLQMNSLRAEDTAVYFCSRYLGLWGPGTLVTVSS
VL: EQVLTQSPGTLSLSPGERATLSCQSSKSVNNNNLAWYQQKPGQPPRLLIYFASALASGVPDRFSGSGSGTDFTLTISRLEPEDFAVYYCQGAYSGGSDSYAFGGGTKVEIKR
notes: humanized rabbit anti-CCR8 antibody, human IgG1
B2: hu.Ab3.H1L1 (antibody, human IgG1, kappa, V domains shown)
VH: EQQLVESGGGLVQPGGSLRLSCAVSGFSLSSYAMSWVRQAPGKGLEWIGVISASGRIIYATWAKGRFTISKDSAKTSVYLQMNSLRDEDTAVYFCARGVPSYSLVMSDWGPGTTVTVSS
VL: EPVMTQSPATLSVSPGERATLSCQASQSISNALAWYQQKPGQPPRLLIYEVSKVASGVPARFSGSGSGTEFTLTISSLQSEDFAVYYCQSAYYGNSYVWGAFGQGTKVEIKR
notes: humanized, human IgG1

What was measured:
human CCR8 [1] = molecular target: T1, human CCR8 (human, UniProt P51685 1-355); experiment: flow cytometry, human colorectal cancer dissociated tumor cells, 2 ug/mL mAb, AF647 anti-human IgG; CCR8 read on Treg cells
T1 construct: the assay field says which; also called hCCR8; huCCR8
Method: The mAbs were evaluated for binding to regulatory T cells (Treg cells or Tregs) by Fluorescence-Activated Cell Sorting (FACS) flow cytometry. Human colorectal dissociated tumor cells (DTC) (Discovery Life Sciences) were thawed according to vendor's protocol. Cells were surface stained with eFluor 780-conjugated Fixable Viability Dye (ThermoFisher Scientific) and 2 ug/mL mAb specific for CCR8, OX40 (positive control), Herceptin (negative control), or anti-hIgG (negative control) for 20 min at 4° C. followed by secondary detection with AF647-conjugated AffiniPure F(ab′)2 Fragment Goat anti-Human IgG, Fcg fragment-specific (Jackson ImmunoResearch) for 10 min at 4° C. Cells were then intracellularly stained using the eBioscience Foxp3/Transcription Factor Staining Buffer Set (ThermoFisher Scientific) according to the manufacturer's protocol. […] Shown in FIG. 1 are mean fluorescent intensity (MFI) values for CD8 T cells (defined as CD45+CD14−CD3+CD8+CD4−) (circles, ◯), conventional CD4 T cells (defined as CD45+CD14−CD3+CD8−CD4+FOXP3−) (squares, □), and Treg cells (defined as CD45+CD14−CD3+CD8−CD4+FOXP3+) (triangles, ▴). Three of the five CCR8 mAb clones specifically stained Treg cells and not conventional CD4 or CD8 T cells and were ranked according to CCR8 MFI, greater than 500 MFI: hu.Ab4.H1L1>hu.Ab5.H1L1>hu.Ab3.H1L1. […]

human CXCR4 = molecular target: T2, human CXCR4 (human, UniProt P61073 1-352); experiment: flow cytometry, HEK293 transiently transfected with N-term FLAG-tagged human CXCR4, antibody at 5 ug/ml
T2 construct: whole, on cells; transiently expressed on HEK293 cells
Description: (§1) FIGS. 4A-4F depicts the binding data of hu.Ab3.H1L1 (FIG. 4A), hu.Ab4.H1L1 (FIG. 4B), and hu.Ab5.H1L1 (FIG. 4C), as well as the commercial anti-CCR8 mAbs murine anti-human CCR8 mAb 433H (BD Biosciences) (FIG. 4D), and murine anti-human CCR8 mAb L263G8 (Biolegend) (FIG. 4E), and the humanized anti-human Yoshida anti-CCR8 mAb (FIG. 4F), to HEK293 cells that were transiently transfected with N-term FLAG-tagged plasmids encoding for human GPCRs (CCR2, CCR3, CCR4, CCR5, CCR8, CXCR4, ACKR2, and ACKR4), hCCR8 constructs, or with a mock construct using transIT X2 (reagent:DNA=3:1).
(§2) To confirm the selectivity to CCR8, the binding of hu.Ab3.H1L1, hu.Ab4.H1L1, and hu.Ab5.H1L1, as well as the Yoshida humanized anti-human CCR8, murine anti-human CCR8 mAb L263G8 (Biolegend, Commercial Ab) and murine anti-human CCR8 mAb 433H (BD Biosciences, Commercial Ab), were characterized by flow cytometry on HEK293 cells that were transiently transfected with plasmids encoding for FLAG-tagged other related human GPCRs (CCR2-5, CXCR4, ACKR2, and ACKR4). Cell surface expression of each GPCR was confirmed by staining with an anti-FLAG antibody control. […]

human CCR3 = molecular target: T3, human CCR3 (human, UniProt P51677 1-355); experiment: flow cytometry, HEK293 transiently transfected with N-term FLAG-tagged human CCR3, antibody at 5 ug/ml
T3 construct: whole, on cells; transiently expressed on HEK293 cells
T3 sequence (looked up): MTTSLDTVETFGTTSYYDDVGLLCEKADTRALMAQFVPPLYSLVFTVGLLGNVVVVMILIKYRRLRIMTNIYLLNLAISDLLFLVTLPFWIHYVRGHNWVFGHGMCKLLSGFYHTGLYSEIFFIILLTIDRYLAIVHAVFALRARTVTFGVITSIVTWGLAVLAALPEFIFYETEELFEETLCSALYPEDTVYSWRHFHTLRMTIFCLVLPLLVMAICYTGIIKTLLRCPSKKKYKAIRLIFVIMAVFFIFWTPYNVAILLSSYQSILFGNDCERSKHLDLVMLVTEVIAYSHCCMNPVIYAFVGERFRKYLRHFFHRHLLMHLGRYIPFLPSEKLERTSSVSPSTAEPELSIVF
Description: as §1, §2

human CCR8 [2] = molecular target: T1, human CCR8; experiment: flow cytometry, 2 ug/mL mAb, Treg cells of human colorectal dissociated tumor cells
Method: The mAbs were evaluated for binding to regulatory T cells (Treg cells or Tregs) by Fluorescence-Activated Cell Sorting (FACS) flow cytometry. Human colorectal dissociated tumor cells (DTC) (Discovery Life Sciences) were thawed according to vendor's protocol. Cells were surface stained with eFluor 780-conjugated Fixable Viability Dye (ThermoFisher Scientific) and 2 ug/mL mAb specific for CCR8, OX40 (positive control), Herceptin (negative control), or anti-hIgG (negative control) for 20 min at 4° C. followed by secondary detection with AF647-conjugated AffiniPure F(ab′)2 Fragment Goat anti-Human IgG, Fcg fragment-specific (Jackson ImmunoResearch) for 10 min at 4° C. Cells were then intracellularly stained using the eBioscience Foxp3/Transcription Factor Staining Buffer Set (ThermoFisher Scientific) according to the manufacturer's protocol. […] Shown in FIG. 1 are mean fluorescent intensity (MFI) values for CD8 T cells (defined as CD45+CD14−CD3+CD8+CD4−) (circles, ◯), conventional CD4 T cells (defined as CD45+CD14−CD3+CD8−CD4+FOXP3−) (squares, □), and Treg cells (defined as CD45+CD14−CD3+CD8−CD4+FOXP3+) (triangles, ▴). Three of the five CCR8 mAb clones specifically stained Treg cells and not conventional CD4 or CD8 T cells and were ranked according to CCR8 MFI, greater than 500 MFI: hu.Ab4.H1L1>hu.Ab5.H1L1>hu.Ab3.H1L1. Upon confirmation that these three CCR8 mAb clones, namely, hu.Ab3.H1L1, hu.Ab4.H1L1, and hu.Ab5.H1L1, also retained human-cyno cross-reactivity (differences less than 5-fold on human and cyno CCR8 CHO cells), these antibodies carried forward for further exploration.

human CCR5 = molecular target: T4, human CCR5 (human, UniProt P51681 1-352); experiment: flow cytometry, HEK293 transiently transfected with N-term FLAG-tagged human CCR5, antibody at 5 ug/ml
T4 construct: whole, on cells; transiently expressed on HEK293 cells
Description: as §1, §2

cyno CCR8 = molecular target: T5, cyno CCR8 (cynomolgus monkey, UniProt O97665 1-356 (rhesus entry)); experiment: flow cytometry on human and cyno CCR8 CHO cells
T5 construct: also called cynomolgus monkey CCR8

human ACKR4 = molecular target: T6, human ACKR4 (human, UniProt Q9NPB9 1-350); experiment: flow cytometry, HEK293 transiently transfected with N-term FLAG-tagged human ACKR4, antibody at 5 ug/ml
T6 construct: whole, on cells; transiently expressed on HEK293 cells
T6 sequence (looked up): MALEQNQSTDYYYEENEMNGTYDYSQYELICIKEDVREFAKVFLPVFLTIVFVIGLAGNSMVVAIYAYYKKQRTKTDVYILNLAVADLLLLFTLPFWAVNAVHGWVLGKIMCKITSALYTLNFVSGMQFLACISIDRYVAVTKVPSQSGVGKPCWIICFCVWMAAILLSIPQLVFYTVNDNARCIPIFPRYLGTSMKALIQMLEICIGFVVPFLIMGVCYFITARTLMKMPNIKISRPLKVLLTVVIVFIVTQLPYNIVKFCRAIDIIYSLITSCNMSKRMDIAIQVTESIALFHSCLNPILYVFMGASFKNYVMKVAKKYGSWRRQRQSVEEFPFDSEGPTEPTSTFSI
Description: as §1, §2

human CCR8 [3] = molecular target: T1, human CCR8; experiment: cell-based or functional assay
human CCR2 = molecular target: T7, human CCR2 (human, UniProt P41597 1-374); experiment: flow cytometry, HEK293 with N-term FLAG-tagged human CCR2
T7 construct: whole, on cells; transiently expressed on HEK293 cells
Description: as §1
To confirm the selectivity to CCR8, the binding of hu.Ab3.H1L1, hu.Ab4.H1L1, and hu.Ab5.H1L1, as well as the Yoshida humanized anti-human CCR8, murine anti-human CCR8 mAb L263G8 (Biolegend, Commercial Ab) and murine anti-human CCR8 mAb 433H (BD Biosciences, Commercial Ab), were characterized by flow cytometry on HEK293 cells that were transiently transfected with plasmids encoding for FLAG-tagged other related human GPCRs (CCR2-5, CXCR4, ACKR2, and ACKR4). Cell surface expression of each GPCR was confirmed by staining with an anti-FLAG antibody control. In particular, HEK293 cells were transfected with N-term FLAG-tagged human CCR2, CCR3, CCR4, CCR5, CXCR4, ACKR2, ACKR4, hCCR8 constructs, or with a Mock construct using transIT X2 (reagent:DNA=3:1) for 24 hours, and surface stained with various anti-hCCR8 monoclonal antibodies at 5 ug/ml, or rabbit anti-Flag pAb (Sigma) followed by AF647-anti-hIgG or AF647-anti-RbIgG respectively. Antibodies hu.Ab4.H1L1, and hu.Ab5.H1L1, only stained the hCCR8-containing cells, confirming their specificity to hCCR8. […] Thus, the CCR8 selective hu.Ab4.H1L1 and hu.Ab5.H1L1 antibodies with the best ADCC activities were carried forward.

T7 sequence (P41597 whole entry): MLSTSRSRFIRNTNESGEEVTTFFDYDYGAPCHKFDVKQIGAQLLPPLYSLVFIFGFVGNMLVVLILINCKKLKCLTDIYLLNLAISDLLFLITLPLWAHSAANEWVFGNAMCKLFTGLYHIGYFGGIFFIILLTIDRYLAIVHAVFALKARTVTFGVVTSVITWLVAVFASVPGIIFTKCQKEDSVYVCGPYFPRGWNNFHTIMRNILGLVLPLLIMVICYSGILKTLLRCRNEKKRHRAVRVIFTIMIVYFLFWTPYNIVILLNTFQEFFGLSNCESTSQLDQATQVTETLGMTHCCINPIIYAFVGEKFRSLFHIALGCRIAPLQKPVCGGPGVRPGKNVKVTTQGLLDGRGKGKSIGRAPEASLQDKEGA
T2 sequence (P61073 whole entry): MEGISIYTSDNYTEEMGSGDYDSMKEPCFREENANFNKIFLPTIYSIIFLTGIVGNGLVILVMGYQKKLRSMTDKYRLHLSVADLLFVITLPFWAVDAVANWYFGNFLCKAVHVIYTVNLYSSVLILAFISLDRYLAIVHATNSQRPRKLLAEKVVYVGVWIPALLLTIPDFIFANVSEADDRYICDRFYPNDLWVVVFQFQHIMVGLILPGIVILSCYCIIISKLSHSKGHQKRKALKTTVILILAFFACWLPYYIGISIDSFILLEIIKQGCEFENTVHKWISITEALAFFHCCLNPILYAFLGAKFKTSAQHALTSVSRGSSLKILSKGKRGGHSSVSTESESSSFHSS
T4 sequence (P51681 whole entry): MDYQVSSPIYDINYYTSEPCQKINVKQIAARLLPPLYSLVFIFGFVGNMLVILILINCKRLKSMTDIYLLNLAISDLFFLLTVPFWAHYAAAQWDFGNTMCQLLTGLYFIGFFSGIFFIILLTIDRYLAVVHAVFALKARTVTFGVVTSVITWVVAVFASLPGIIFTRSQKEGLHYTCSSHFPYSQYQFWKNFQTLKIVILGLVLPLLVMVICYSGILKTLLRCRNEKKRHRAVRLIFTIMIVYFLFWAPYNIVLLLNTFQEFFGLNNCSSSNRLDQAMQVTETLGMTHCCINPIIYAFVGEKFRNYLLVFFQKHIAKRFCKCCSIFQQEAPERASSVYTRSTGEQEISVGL
T5 sequence (O97665 other isoform, or with tags, fused parts or gaps): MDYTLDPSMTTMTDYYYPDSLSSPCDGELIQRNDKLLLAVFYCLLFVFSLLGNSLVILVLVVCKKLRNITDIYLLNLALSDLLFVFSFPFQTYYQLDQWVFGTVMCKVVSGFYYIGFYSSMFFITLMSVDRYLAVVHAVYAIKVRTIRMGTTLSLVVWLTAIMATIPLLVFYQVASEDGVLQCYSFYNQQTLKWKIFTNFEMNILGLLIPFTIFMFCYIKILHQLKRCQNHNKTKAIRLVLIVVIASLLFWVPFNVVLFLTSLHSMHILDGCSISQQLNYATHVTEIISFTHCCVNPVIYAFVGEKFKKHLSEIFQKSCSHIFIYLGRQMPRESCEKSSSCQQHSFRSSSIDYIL

Binder | binding result (human CCR8 [1]) | binding result (human CXCR4) | binding result (human CCR3) | MFI (human CCR8 [2]) [MFI] | binding result (human CCR5) | binding result (cyno CCR8) | binding result (human ACKR4) | ADCC EC50, NK-92_F158 effector cells, calcein release (human CCR8 [3]) [nM] | binding result (human CCR2)
B1 | binds | – | – | – | – | – | – | – | –
B2 | – | binds | binds | > 500 | binds | binds | binds | 0.02 | no binding (tested: 5 ug/ml)
